Experimental findings from the supplement of paper PMC5998384 are described below.

In data set [1] the test system is HeLa Kyoto. The data set can be described thus: thermal stability score vs G1/S (z-score of summed log2 fold changes over temperatures); higher = more thermally stable than in G1/S.
The test system of data set [2] is HeLa Kyoto. The data set can be described thus: solubility in G1/S (NP-40 vs SDS abundance) (log2 ratio); higher = more soluble. As to conditions: cell cycle stage: G1/S.
Data set [3] concerns HeLa Kyoto. The data set can be described thus: solubility change mitosis vs G1/S (difference of NP-40 vs SDS log2 ratios) (log2 ratio difference); higher = more soluble in mitosis.
The subject of data set [4] is HeLa Kyoto. Briefly: melting temperature (median over replicates), in situ; higher = more thermally stable.
Where [5] appears, read: cell cycle stage: early G1 (4.5 h after nocodazole release).
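Wherever melting temperature (median over replicates), in situ is given: HeLa Kyoto cells synchronized by double thymidine or nocodazole block, proteins quantified by TMT10plex mass spectrometry, three independent biological replicates.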
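Wherever solubility change mitosis vs G1/S (difference of NP-40 vs SDS log2 ratios) is given: synchronized HeLa Kyoto cells (double thymidine block for G1/S, nocodazole release for mitosis), protein amounts in NP-40 versus SDS lysates quantified by mass spectrometry, three biological replicates.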
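Wherever solubility in G1/S (NP-40 vs SDS abundance) is given: HeLa Kyoto cells arrested at G1/S by double thymidine block, proteins quantified by TMT10plex mass spectrometry in mild NP-40 versus SDS extracts, three biological replicates.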
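Wherever thermal stability score vs G1/S (z-score of summed log2 fold changes over temperatures) is given: synchronized HeLa Kyoto cells, proteins quantified by TMT10plex mass spectrometry, three biological replicates, mitosis taken 0.5 h after nocodazole release, G1/S directly after double thymidine block.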

As for “MAVSESQLKKMVSKYKYRDLTVRETVNVITLYKDLKPVLDSYVFNDGSSRELMNLTGTIPVPYRGNTYNIPICLWLLDTYPYNPPICFVKPTSSMTIKTGKHVDANGKIYLPYLHEWKHPQSDLLGLIQVMIVVFGDEPPVFSRPISASYPPYQATGPPNTSYMPGMPGGISPYPSGYPPNPSGYPGCPYPPGGPYPATTSSQYPSQPPVTTVGPSRDGTISEDTIRASLISAVSDKLRWRMKEEMDRAQAELNALKRTEEDLKKGHQKLEEMVTRLDQEVAEVDKNIELLKKKDEELSSALEKMENQSENNDIDEVIIPTAPLYKQILNLYAEENAIEDTIFYLGEALRRGVIDLDVFLKHVRLLSRKQFQLRALMQKARKTAGLSDLY [TSG101]”, the thermal stability score is -0.385 in the data set with HeLa Kyoto [1] (setting [5]) and -0.589 in the data set on HeLa Kyoto [1] (cell cycle stage: mitosis). In the data set on HeLa Kyoto [2], the “solubility in G1/S (log2)” value came to 0.617. Besides, the “solubility change mitosis (log2)” value in the data set with HeLa Kyoto [3] is -0.0618. For the same sequence, the melting temperature in the data set on HeLa Kyoto [4] (cell cycle stage: G1/S) worked out at 50.7 °C; in the data set on HeLa Kyoto [4] (cell cycle stage: mitosis) it was 50.2 °C.
For the sequence “MAVSVTPIRDTKWLTLEVCREFQRGTCSRPDTECKFAHPSKSCQVENGRVIACFDSLKGRCSRENCKYLHPPPHLKTQLEINGRNNLIQQKNMAMLAQQMQLANAMMPGAPLQPVPMFSVAPSLATNASAAAFNPYLGPVSPSLVPAEILPTAPMLVTGNPGVPVPAAAAAAAQKLMRTDRLEVCREYQRGNCNRGENDCRFAHPADSTMIDTNDNTVTVCMDYIKGRCSREKCKYFHPPAHLQAKIKAAQYQVNQAAAAQAAATAAAMTQSAVKSLKRPLEATFDLGIPQAVLPPLPKRPALEKTNGATAVFNTGIFQYQQALANMQLQQHTAFLPPVPMVHGATPATVSAATTSATSVPFAATATANQIPIISAEHLTSHKYVTQM [MBNL1]”, the thermal stability score in the data set on HeLa Kyoto [1] (setting [5]) was -3.27; in the data set on HeLa Kyoto [1] (cell cycle stage: mitosis), -3.37. Also, the “solubility in G1/S (log2)” value in the data set with HeLa Kyoto [2] stood at 0.11. The “solubility change mitosis (log2)” value in the data set on HeLa Kyoto [3] is 0.353. The melting temperature with HeLa Kyoto [4] (cell cycle stage: G1/S) stood at 52.3 °C; in the data set with HeLa Kyoto [4] (cell cycle stage: mitosis), 52.2 °C.
On to “MAVTDSLSRAATVLATVLLLSFGSVAASHIEDQAEQFFRSGHTNNWAVLVCTSRFWFNYRHVANTLSVYRSVKRLGIPDSHIVLMLADDMACNPRNPKPATVFSHKNMELNVYGDDVEVDYRSYEVTVENFLRVLTGRIPPSTPRSKRLLSDDRSNILIYMTGHGGNGFLKFQDSEEITNIELADAFEQMWQKRRYNELLFIIDTCQGASMYERFYSPNIMALASSQVGEDSLSHQPDPAIGVHLMDRYTFYVLEFLEEINPASQTNMNDLFQVCPKSLCVSTPGHRTDLFQRDPKNVLITDFFGSVRKVEITTETIKLQQDSEIMESSYKEDQMDEKLMEPLKYAEQLPVAQIIHQKPKLKDWHPPGGFILGLWALIIMVFFKTYGIKHMKFIF [PIGK]”, for which the thermal stability score with HeLa Kyoto [1] (setting [5]) came to 1.4; with HeLa Kyoto [1] (cell cycle stage: mitosis), 0.424. In addition, in the data set on HeLa Kyoto [2], the “solubility in G1/S (log2)” value was -0.134. Moreover, the “solubility change mitosis (log2)” value with HeLa Kyoto [3] was -0.0814. Besides, the melting temperature in the data set on HeLa Kyoto [4] (cell cycle stage: G1/S) and in the data set with HeLa Kyoto [4] (cell cycle stage: mitosis) was 53.5 °C each time.
Consider “MAVVPLLLLGGLWSAVGASSLGVVTCGSVVKLLNTRHNVRLHSHDVRYGSGSGQQSVTGVTSVDDSNSYWRIRGKSATVCERGTPIKCGQPIRLTHVNTGRNLHSHHFTSPLSGNQEVSAFGEEGEGDYLDDWTVLCNGPYWVRDGEVRFKHSSTEVLLSVTGEQYGRPISGQKEVHGMAQPSQNNYWKAMEGIFMKPSELLKAEAHHAEL [SDF2]”, for which the thermal stability score in the data set on HeLa Kyoto [1] (setting [5]) was determined as 4.15; in the data set on HeLa Kyoto [1] (cell cycle stage: mitosis) it was 3.09. Further, in the data set with HeLa Kyoto [2], the “solubility in G1/S (log2)” value came out at 0.097. For the same sequence, the “solubility change mitosis (log2)” value with HeLa Kyoto [3] was -0.129. In addition, the melting temperature in the data set with HeLa Kyoto [4] (cell cycle stage: G1/S) turned out to be 54.3 °C; in the data set on HeLa Kyoto [4] (cell cycle stage: mitosis), 54.1 °C.
As to “MCGIWALFGSDDCLSVQCLSAMKIAHRGPDAFRFENVNGYTNCCFGFHRLAVVDPLFGMQPIRVKKYPYLWLCYNGEIYNHKKMQQHFEFEYQTKVDGEIILHLYDKGGIEQTICMLDGVFAFVLLDTANKKVFLGRDTYGVRPLFKAMTEDGFLAVCSEAKGLVTLKHSATPFLKVEPFLPGHYEVLDLKPNGKVASVEMVKYHHCRDVPLHALYDNVEKLFPGFEIETVKNNLRILFNNAVKKRLMTDRRIGCLLSGGLDSSLVAATLLKQLKEAQVQYPLQTFAIGMEDSPDLLAARKVADHIGSEHYEVLFNSEEGIQALDEVIFSLETYDITTVRASVGMYLISKYIRKNTDSVVIFSGEGSDELTQGYIYFHKAPSPEKAEEESERLLRELYLFDVLRADRTTAAHGLELRVPFLDHRFSSYYLSLPPEMRIPKNGIEKHLLRETFEDSNLIPKEILWRPKEAFSDGITSVKNSWFKILQEYVEHQVDDAMMANAAQKFPFNTPKTKEGYYYRQVFERHYPGRADWLSHYWMPKWINATDPSARTLTHYKSAVKA [ASNS]”, the thermal stability score is 2.34 with HeLa Kyoto [1] (setting [5]) and -0.215 in the data set with HeLa Kyoto [1] (cell cycle stage: mitosis). Further, the “solubility in G1/S (log2)” value with HeLa Kyoto [2] is -0.142. Further, the “solubility change mitosis (log2)” value in the data set with HeLa Kyoto [3] was -0.21. For the same sequence, the melting temperature came out at 52.8 °C in the data set with HeLa Kyoto [4] (cell cycle stage: G1/S) and 53.1 °C with HeLa Kyoto [4] (cell cycle stage: mitosis).
